Data taken from the supplement of paper PMC10567573.
± gives the standard deviation.

Test: protein stability index of a GFP-peptide fusion (GPS, HEK-293T) (PSI 1-6); higher = more stable
[1] = treatment: DMSO, c terminus: a fixed tail appended
[2] = treatment: MLN4924 1 uM, 8 h, c terminus: a fixed tail appended
[3] = treatment: DMSO, c terminus: native
[4] = treatment: MLN4924 1 uM, 8 h, c terminus: native
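Further: 24-mer peptide tiles fused after GFP, lentivirally expressed, FACS-sorted into six equal bins by GFP/DsRed ratio, decoded by Illumina sequencing, PSI is the read-weighted mean bin number.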

Row | Sequence | protein stability index [1] | protein stability index [2] | protein stability index [3] | protein stability index [4]
1 | RQVKHYRIFRLPNNWYYISPRLTF [SLA] | 2.43 ± 0.52 | 2.14 ± 0.069 | – | –
2 | EAFWAEWKDLTLSTRPEEGCSLHE [TCAP] | 3.98 ± 0.18 | 4 ± 0.2 | – | –
3 | PTEQVNELVALIPHSDQRLRPQRT [TMEM106C] | 4.63 ± 0.12 | 4.75 ± 0.1 | – | –
4 | ITHTREEQPHGRSRRREQSSSRNS [ZNF8] | 5.33 ± 0.37 | 5.41 ± 0.13 | – | –
5 | CVLVPRADLRLGGQPAPPQLLLGR [SMAD6] | 2.5 ± 0.5 | 2.65 ± 0.099 | – | –
6 | LTGLFKGDKCHSLVGKPKIFIIQA [CASP6] | 2.83 ± 0.46 | 2.93 ± 0.65 | – | –
7 | LESEDWEEDNWDPELMEHTEAESE [TEX19] | 5.59 ± 0.29 | 5.53 ± 0.32 | – | –
8 | QPPLTYKRFQTLISKMEPLEIPVE [CRY1] | 2.97 ± 0.39 | 2.79 ± 0.34 | – | –
9 | DGTGRMPTLKKCEDVARPTQRLWD [GALNT9] | 4.01 ± 0.31 | 4.13 ± 0.19 | – | –
10 | SFQGCMAQLFMDHLFAGAEVILLV [OR4A15] | 3.28 ± 1.2 | 3.18 ± 0.91 | – | –
11 | MPQSEEHLLEAEPLSPIQASSVHL | 4.87 ± 0.17 | 4.94 ± 0.17 | – | –
12 | DPNFKMEHQNKRSPLHAAAEAGHV [EHMT1] | 4.89 ± 0.22 | 5.04 ± 0.18 | – | –
13 | GNTVPAVEPGTPPLDILAQPLEAS [DNAAF3] | 5.19 ± 0.18 | 5.03 ± 0.29 | – | –
14 | DVNNLDPDLRSLFSRAGISEAQLT [WAS] | 3.07 ± 0.41 | 3.34 ± 0.48 | – | –
15 | TSHRRVTDVRGLEEFLSAMQSARG [PLEKHN1] | 3.33 ± 0.31 | 3.42 ± 0.26 | – | –
16 | LFCEVSVVQDSVNISGHTNTNTLK [SPOPL] | 2.76 ± 0.4 | 2.84 ± 0.67 | – | –
17 | GWCIFVYNLSPEADESVLWQLFGP [ELAVL3] | 2.8 ± 1.4 | 3.7 ± 1.2 | – | –
18 | PENQEYFEKHRWPPVWYLKEEDHY [RHOBTB2] | 3.42 ± 0.23 | 3.57 ± 0.41 | – | –
19 | TALVTVSSEEFEDKWFRKIKDHFC [C8orf76] | 2.33 ± 0.16 | 2.54 ± 0.25 | – | –
20 | LQLPQLSDLGLLRLCTWLLALSPD [FANCE] | 2.89 ± 0.6 | 2.37 ± 0.3 | – | –
21 | ELLGVHPGASTEEVKRAFFSKSKE [DNAJC4] | 3.8 ± 0.19 | 4.08 ± 0.42 | – | –
22 | KAKQEKVSAQYLSEIEMAKAQRDY [FLOT1] | 4.54 ± 0.12 | 4.64 ± 0.18 | – | –
23 | LLSQKKTISFLGCAIQMFSFLFLG [OR10K2] | 2.5 ± 0.69 | 2.41 ± 0.25 | – | –

Row | Sequence | protein stability index [1] | protein stability index [2] | protein stability index [3] | protein stability index [4]
24 | LSVCPLEGSREHAFQITGVWDASR [PLEKHN1] | 2.88 ± 0.24 | 3.38 ± 0.37 | – | –
25 | EIIRVILKLYEQWKNFDERKEMAT [CCNC] | 2.09 ± 0.52 | 2.38 ± 0.3 | – | –
26 | SLAETECRYATQLQQIQGLIGGLE [KRT15] | 2.83 ± 0.24 | 2.91 ± 0.32 | – | –
27 | FLRGPSGPRFGPRNDKIKHVQNQV [VAMP4] | 2.93 ± 0.27 | 3.39 ± 0.31 | – | –
28 | KKDKDISKEKDTQNQNITLDCEGT [KMT2E] | 5.23 ± 0.26 | 5.49 ± 0.28 | – | –
29 | THSSLSQELQARLQTVTREKEELL [CCDC89] | 4.89 ± 0.35 | 4.68 ± 0.22 | – | –
30 | SDSEANGFAERRIDKFGFIVGSQG [TBC1D10A] | 4.14 ± 0.35 | 4.07 ± 0.34 | – | –
31 | PAGCMYIHGGVVNIHENKRTGSLF [KLHDC10] | 2.52 ± 0.18 | 2.45 ± 0.26 | – | –
32 | GLSLCQFQNFSLHDPLYGKLFSTY [LPCAT4] | 1.81 ± 0.56 | 2.06 ± 0.21 | – | –
33 | MRELGLLIFFLFIGVILFSSAVYF [KCNA4] | 2.91 ± 0.35 | 2.03 ± 0.64 | – | –
34 | FPFSLLGLLALAIGLWGLAVKGSL [TSPAN10] | 3.33 ± 0.37 | 3.14 ± 0.27 | – | –
35 | PLSLYGQLLWREFFYTAATNNPRF [CRY1] | 2.79 ± 0.46 | 2.5 ± 0.72 | – | –
36 | TVLKQIAPEYFEKNEPYLEAACND [DENND6A] | 3.09 ± 0.05 | 3.26 ± 0.43 | – | –
37 | STFSSGPSDKMKWCLRVNPKGLDD [SPOPL] | 2.73 ± 0.5 | 3 ± 0.47 | – | –
38 | MGRKKKKQLKPWCWYCNRDFDDEK [ZNF207] | 2.39 ± 0.33 | 3.05 ± 0.34 | – | –
39 | LYVDSLFFLRGRLDQLLRHVMNPL [PRAME] | 3.38 ± 0.99 | 1.89 ± 0.53 | – | –
40 | KVLLDCGADPDSRDFDNNTPLHIA [FEM1A] | 4.02 ± 0.17 | 4.07 ± 0.15 | – | –
41 | YFALRKILKQLIADVTLDPETAHP [TRIM39] | 4.09 ± 0.2 | 4.34 ± 0.21 | – | –
42 | SSSTPLEDEEPQEPNRLETGEAGE [RTN2] | 5.51 ± 0.34 | 5.56 ± 0.3 | – | –
43 | SSTSCLMPSKLFAGLVHVKQCIVA [CRYL1] | 2.44 ± 0.31 | 2.11 ± 0.25 | – | –
44 | GGAEMRTQHWPIRLDGQQEPQPFV [MYORG] | 3.86 ± 0.27 | 3.85 ± 0.13 | – | –
45 | WTNRLCHQEMGSKKTVTQEDRGW [SPAG8] | – | – | 3.08 ± 0.64 | 2.79 ± 0.41
46 | SARWLEVLRTYLELVLCVLVSIRN [FBXO33] | 2.33 ± 0.31 | 2.16 ± 0.21 | – | –

Row | Sequence | protein stability index [1] | protein stability index [2] | protein stability index [3] | protein stability index [4]
47 | LRKSIFSESRKPTVSIMEPGETRR [TRIM29] | 3.66 ± 0.32 | 3.93 ± 0.58 | – | –
48 | VSEWASKAKANGITMYAVGVGKAI [MATN2] | 2.33 ± 0.3 | 2.36 ± 0.2 | – | –
49 | GVDHTKMSLHGASGGHERSRDRRR [BTBD10] | 5.26 ± 0.27 | 5.3 ± 0.24 | – | –
50 | QMTNIGVYVSNMTDKLVTPGKYFS [IQUB] | 2.31 ± 0.5 | 2.49 ± 0.28 | – | –
51 | HAYIHSVQFSHHVFLNLHTLKFYC [USP39] | 3.33 ± 0.42 | 3.04 ± 0.56 | – | –
52 | DNQWMTQINRLQKLIDRLEKKDLK [NECAB1] | 2.13 ± 0.43 | 3.16 ± 0.33 | – | –
53 | MAMAVMLYYSNFVLALEERFGVRP [MFSD9] | 3.3 ± 0.47 | 3.41 ± 0.49 | – | –
54 | KTKWTKEDGHRTSTSAVPNLFVPL [ADD1] | 3.27 ± 0.26 | 3.22 ± 0.28 | – | –
55 | PVAAQFTSEGTTLSGVDLELVGSG [FCHO1] | 4.54 ± 0.17 | 4.57 ± 0.24 | – | –
56 | SARIGQNCSIGPNVSLGPGVVVED [GMPPB] | 4.49 ± 0.33 | 4.58 ± 0.23 | – | –
57 | KSGAIMSALSDTEIQREIGISNAL [PPFIA4] | 4.02 ± 0.36 | 4.13 ± 0.18 | – | –
58 | SFGGEWSAPDTMKRYSMYLTPKGG [TRIM29] | 3.09 ± 0.51 | 3.09 ± 0.48 | – | –
59 | SLTRSNRHRLRWHSFQSSHRPSLN [DLC1] | 3.05 ± 0.14 | 3.41 ± 0.31 | – | –
60 | SGTDAEETILNAFKMLDPDGKGKI [MYL5] | 4.51 ± 0.18 | 4.31 ± 0.17 | – | –
61 | PFGILSPNVLCSMSGKSPVESSLN [FBXO34] | 2.88 ± 0.33 | 2.64 ± 0.37 | – | –
62 | LSQRVMCNDLFKVNPFQLQQFRAD [TIAF1] | 2.48 ± 0.18 | 2.5 ± 0.32 | – | –
63 | MGPKTLPQLAGKWQVLCMLSLCCW [PCDHGC5] | 3.21 ± 0.49 | 3.17 ± 0.76 | – | –
64 | HVKETQPPETVQNWIELLSGETWN [GOLPH3] | 3.67 ± 0.36 | 3.86 ± 0.41 | – | –
65 | TCADRDNLTRRFSDLGFEVKCFND [CASP6] | 2.96 ± 0.32 | 3.24 ± 0.21 | – | –
66 | TATFAVHFMVLSKSGPGDGFFSSA [POMT2] | 2.84 ± 0.36 | 2.93 ± 0.51 | – | –
67 | NVEAQLSEIRCDLERQNQEYQVLL [KRT36] | 3.58 ± 0.29 | 3.53 ± 0.21 | – | –
68 | HGDDLKNTKNEISELTRLIQRIRS [KRT71] | 2.77 ± 0.18 | 3.11 ± 0.3 | – | –
69 | RAGGGGGGDYGLVTAGCGFGKDFR [PPTC7] | 3.33 ± 0.51 | 3.13 ± 0.21 | – | –

Row | Sequence | protein stability index [1] | protein stability index [2] | protein stability index [3] | protein stability index [4]
70 | PKLFCPKNRSFDIDAIYSVIDDAK [PLD5] | 3 ± 0.62 | 2.89 ± 0.27 | – | –
71 | NQYATCRLCGRQVSRGPGVNVGTT [ZBED2] | 2.39 ± 0.27 | 2.58 ± 0.46 | – | –
72 | PPSNFLEIDIFNPQTVGVGRARFT [SNX12] | 3.27 ± 0.34 | 3.27 ± 0.21 | – | –
73 | LTRMTRVSEFLKVAEQVGIDKGDI [SNAP91] | 3.39 ± 0.23 | 3.48 ± 0.23 | – | –
74 | AGRLMRPSVKYLSHPRVQSGCDKE [RNF180] | 4.06 ± 0.21 | 4.11 ± 0.21 | – | –
75 | TRGDADMYDLPKKEDALLYQSKGY [EMD] | 4.19 ± 0.14 | 4.38 ± 0.15 | – | –
76 | KLQVRLATKTEPKKLEKYLQKLSA [ELOA2] | 2.31 ± 0.41 | 2.81 ± 0.42 | – | –
77 | LQRLDFSVRGYMMSKQRERQLRRR [RETREG3] | 3.88 ± 0.14 | 3.92 ± 0.28 | – | –
78 | AFPFNMQELVLKVRIQNPSLREND [ANKRD40] | 2.41 ± 0.46 | 2.33 ± 0.41 | – | –
79 | AIFSAPAFPAAVSSMKKFCRPLLP [PSD2] | 2.58 ± 0.12 | 2.3 ± 0.28 | – | –
80 | PPPDVTQLTPPSHDLTDNIFPRLV [ANKRD17] | 4.04 ± 0.34 | 4.06 ± 0.16 | – | –
81 | LFCAPGSWEWNELDHIMEIILGS [SERTAD3] | – | – | 3.56 ± 0.17 | 2.45 ± 0.4
82 | VSNTRLIAAATSVLKTRFSYAFPK [CCNC] | 2.24 ± 0.44 | 1.96 ± 0.34 | – | –
83 | KKIPIISNAMLVGDKLKFLSMLLT [ACSBG2] | 2.3 ± 0.79 | 2.47 ± 0.6 | – | –
84 | NITRIYNIGKSHQGLKLYAVEISD [CPXM2] | 2.34 ± 0.43 | 2.31 ± 0.14 | – | –
85 | GHLSKDVDENDSHEGEDQFLSLEA [DLC1] | 5.63 ± 0.17 | 5.54 ± 0.077 | – | –
86 | GEAGWGAGEGRLGHKRKQPLPKRV [FOXJ1] | 4.5 ± 0.16 | 4.59 ± 0.26 | – | –
87 | LESRFQSKSGYLRYSCESRIRSYL [DFFB] | 2.46 ± 0.12 | 2.39 ± 0.24 | – | –
88 | QELNELFKPVVAAQKISKGADPKS [ZC3H15] | 4.8 ± 0.13 | 4.92 ± 0.18 | – | –
89 | CVSRNSHLTSVTSESEQEFLYKTA [CD207] | 3.34 ± 0.51 | 3.81 ± 0.17 | – | –
